Experimental data as given in publication PMC5673899, “Structural basis for receptor recognition of pollen tube attraction peptides” (Nature Communications, 2017).
“Also recorded” adds a separate entry of the source.

Assays:
[1] = tested on: AtPRK6^LRR D234A; test: In vitro pull-down with AtPRK6^LRR mutant D234A; assay type: binding, Arabidopsis thaliana; settings: wild-type AtLURE1.2
Excerpt: The genes of AtPRK3 ^LRR (residues 1–241), AtPRK4 ^LRR (residues 1–277), AtPRK5 ^LRR (residues 1–279), AtPRK6 ^LRR (residues 1–262), MIK1 ^LRR (residues 1–633), MIK2 ^LRR (residues 1–707) were amplified from Arabidopsis cDNA library by PCR and cloned into pFastBac-1 vector with a C-terminal 6 × His-tag. Their identities were confirmed by sequencing. The mature form of AtLURE1.1 (residues 20–94), AtLURE1.2 (residues 20–90), AtLURE1.3 (residues 21–91), and AtLURE1.4 (residues 20–90) were cloned into pFastBac-1 vector, with a modified N-terminal hemolin signal peptide and 6 × His-SUMO tag. Point mutation constructs were generated by QuickChange Site-Directed Mutagenesis Kit (Strategene). All the proteins were expressed using the Bac-to-Bac baculovirus expression system (Invitrogen) in High Five cells at 22 °C. One liter of High Five cells (2.0 × 10^6 cells mL^−1) cultured in the medium from Expression Systems was infected with 25 ml recombinant baculovirus and the media was collected after 72 h of infection. Secreted LRR proteins were purified using Ni-NTA (Novagen) and size-exclusion chromatography (Hiload 200, GE Healthcare) in buffer containing 10 mM Bis-Tris pH 6.0 and 100 mM NaCl. […]
The purified His-tagged ectodomains of AtPRK proteins and MIK1, 2 were used to pull-down the AtLURE1.2 peptide. […] All the eluted samples were analyzed by SDS-PAGE and visualized by Coomassie blue staining. […]

[2] = tested on: SUMO-tagged MDIS1LRR; test: Gel filtration assay with SUMO-tagged MDIS1^LRR with or without MIK1^LRR; assay type: binding; settings: in the presence or absence of MIK1LRR, peer review file
Excerpt: We thank the reviewer for his/her high evaluation of our work and constructive […]
We have conducted more experiments including functional analysis of […]
bind to either MIK1 or MIK2 in their binding experiments. Considering the importance of genetic data published by other groups, I recommend that the authors conduct more binding experiments using MDIS1, MDIS2, and mixtures thereof with […]
interaction of AtLURE1.2 with the extracellular LRR domain of MIK1 (MIK1LRR) or MIK2 (MIK2LRR). All the proteins were purified from insect cells. As shown in […]
AtLURE1.2 in the assays, because the AtLURE1.2 and MIK1LRR or MIK2LRR were well separated in gel filtration. This is strikingly different from PRK6LRR with AtLURE1.2, which co-migrated when tested using the same assay. To further test interaction of AtLURE1.2 with MIK1LRR or MIK2LRR, we used ITC to quantify the binding affinity between the insect cell-generated AtLURE1.2 and MIK1LRR or […]
binding of AtLURE1.2 to MIK1LRR or MIK2LRR (Supplementary Fig. 6). In contrast to […]
into the MIK1LRR- or MIK2LRR-containing cell (Supplementary Fig. 6).
We then tested whether LURE1.2 interacts with MIK1LRR or MIK2LRR in the presence of the extracellular LRR domain of MDIS1 (MDIS1LRR). We therefore tried to purify MDIS1LRR from insect cells. However, although several constructs had been tested, expression of MDIS1LRR protein alone was undetectable. […]

B1: AtLURE1.2: mature form of AtLURE1.2 (residues 20–90), defensin-like cysteine-rich peptide expressed in insect cells (protein)
chain: TLINGSSDEERTYSFSPTTSPFDPRSLNQELKIGRIGYCFDCARACMRRGKYIRTCSFERKLCRCSISDIK
modifications: left off: His6, N-terminal, cleaved | SUMO, N-terminal, cleaved
notes: mature form of AtLURE1.2 (residues 20–90), defensin-like cysteine-rich peptide expressed in insect cells
interaction in pull-down assay [1]: greatly compromised; also recorded: significantly compromised | interaction in gel filtration [2]: no interaction | interaction in gel filtration ([2]; listed as LURE1.2): well separated from the two proteins
